These results are taken from US20140073518A1.

Assay [1] deals with integrins on PC3 cells (adhesion to vitronectin). Kind of assay: cell-based or functional assay.
For assay [2], the target named is human umbilical vein endothelial cells (HUVECs), which express medium levels of the αvβ3, αvβ5 integrins, the Met receptor, and a high level of the α5β1 integrin. The assay is described as follows: HUVEC cell binding assay.
Assay [3] concerns the target integrins on PC3 cells (adhesion to vitronectin). The assay is described as follows: cell-based or functional assay. This is another data set of the same source.
Assay [4] has the same target.

Read-outs that look alike come from different tables or passages of the source. Ends that are not written are not given here.

B1: AgRP mutant 7A (designed binder)
chain: GCVRLHESCLGQQVPCCDPAATCYCSGRGDNDLVCYCR
modifications: ends and bridges not checked; also: four disulfide bonds, pairings not given here
The molecule B1 returned a Half-maximal inhibitor concentration, inhibition of PC3 cell adhesion to human vitronectin in assay [1] of 20 to 40 nM.

B2: AgRP7A-Aras4 fusion protein (soluble, FLAG and His tagged) (designed binder)
chain: DYKDDDDKPRGCVRLHESCLGQQVPCCDPAATCYCSGRGDNDLVCYCRYAEGQGKRRNTIHEFKKSAKTTLIKIDPALRIKTEKANTADQCANRCTRSKGLPFTCKAFVFDKARKRCLWFPFNSMSSGVKKEFGHEFDLYENKAYIRDCIIGRGRNYRGTVSITKSGIKCQPWSAMIPHEHSFLPSSYRGEDLRENYCRNPRGEEGGPWCYTSDPEVRYEVCDIPQCSEVETRHHHHHH
For the molecule B2, the Half-maximal inhibitor concentration, inhibition of PC3 cell adhesion to human vitronectin in assay [1] lay in the range of 20 to 40 nM.

B3: AgRp7A-M2.2(D127A) fusion protein (designed binder)
chain: DYKDDDDKPRGCVRLHESCLGQQVPCCDPAATCYCSGRGDNDLVCYCRYAEGQRKRRNTIHEFKKSAKTTLIKIDPALKIKTEKVNTADQCANRCTRNKGLPFTCKAFVFDKARKRCLWFPFNSMSSGVKKEFGHEFDLYENKDYIRACIIGNGRSYRGTVSITKSGIKCQPWSSMIPHEHSFLPSSYRGEDLRENYCRNPRGEEGGPWCFTSDPEVRYEVCDIPQCSEVETRHHHHHH
In the case of B3, in assay [2], the Kd (in general, the equilibrium constant for the complex coming apart) came to 9.4 nM.
Take GCPRPRGDNPPLTCKQDSDCLAGCVCGPNGFCG (designed binder) [EETI-II mutant 2.5F]: the Half-maximal inhibitor concentration, inhibition of PC3 cell adhesion to human vitronectin in assay [3] is 20 to 40 nM.

B4: knottin 2.5F-Fc (EETI 2.5F fused to the Fc domain of mouse Ig2a) (Fc fusion)
chain: GCPRPRGDNPPLTCKQDSDCLAGCVCGPNGFCGEPRGPTIKPCPPCKCPAPNLLGGPSVFIFPPKIKDVLMISLSPIVTCVVVDVSEDDPDVQISWFVNNVEVHTAQTQTHREDYNSTLRVVSALPIQHQDWMSGKEFKCKVNNKDLPAPIERTISKPKGSVRAPQVYVLPPPEEEMTKKQVTLTCMVTDFMPEDIYVEWTNNGKTELNYKNTEPVLDSDGSYFMYSKLRVEKKNWVERNSYSCSVVHEGLHNHHTTKSFSRTPGK
In assay [4], B4 showed an IC50 (read off the curve), PC3 cell adhesion to vitronectin of 10 nM.

B5: knottin 2.5D-Fc (EETI 2.5D fused to the Fc domain of mouse Ig2a) (Fc fusion)
chain: GCPQGRGDWAPTSCKQDSDCRAGCVCGPNGFCGEPRGPTIKPCPPCKCPAPNLLGGPSVFIFPPKIKDVLMISLSPIVTCVVVDVSEDDPDVQISWFVNNVEVHTAQTQTHREDYNSTLRVVSALPIQHQDWMSGKEFKCKVNNKDLPAPIERTISKPKGSVRAPQVYVLPPPEEEMTKKQVTLTCMVTDFMPEDIYVEWTNNGKTELNYKNTEPVLDSDGSYFMYSKLRVEKKNWVERNSYSCSVVHEGLHNHHTTKSFSRTPGK
In assay [4], B5 returned an IC50 (read off the curve), PC3 cell adhesion to vitronectin of 10 nM.

B6: EETI2.5F-Aras4 fusion protein (designed binder)
chain: DYKDDDDKPRGCPRPRGDNPPLTCSQDSDCLAGCVCGPNGFCGYAEGQGKRRNTIHEFKKSAKTTLIKIDPALRIKTEKANTADQCANRCTRSKGLPFTCKAFVFDKARKRCLWFPFNSMSSGVKKEFGHEFDLYENKAYIRDCIIGRGRNYRGTVSITKSGIKCQPWSAMIPHEHSFLPSSYRGEDLRENYCRNPRGEEGGPWCYTSDPEVRYEVCDIPQCSEVETRHHHHHH
For B6, the Half-maximal inhibitor concentration, inhibition of PC3 cell adhesion to human vitronectin in assay [1] lay in the range of 20 to 40 nM.

B7: EETI2.5F-M2.2(D127A) fusion protein (designed binder)
chain: DYKDDDDKPRGCPRPRGDNPPLTCSQDSDCLAGCVCGPNGFCGYAEGQRKRRNTIHEFKKSAKTTLIKIDPALKIKTEKVNTADQCANRCTRNKGLPFTCKAFVFDKARKRCLWFPFNSMSSGVKKEFGHEFDLYENKDYIRACIIGNGRSYRGTVSITKSGIKCQPWSSMIPHEHSFLPSSYRGEDLRENYCRNPRGEEGGPWCFTSDPEVRYEVCDIPQCSEVETRHHHHHH
As for B7, the Kd in assay [2] came to 4.7 nM.
